Experimental data taken from the DeepSol protein solubility set.

Assay: soluble on expression in E. coli; label from the status in PepcDB or PDB records

Sequence	soluble on expression in E. coli
MGSDKIHHHHHHMQWDVIVVGGGPSGLTMAAELAGSGVRTLVLERRTDGVQSRAGTIMPRVLELLDARGIAHRFIEKTRAISNYPFRPSHIWAGFHPINWKYLESRFGFTLGLPQNHTEEILGAWAAECGAEIRTGMEVLDVRQSDDAVEIDVLDVAGTVATLHARYAVGADGGRSVVRNRLGLPFEGHSGTFRGIVIDAELHAPWPGGRVNVDNEMGWVRGYVFGDGVTRFNIVHRDRRHAPKDEPVTLEEALQCIRDVHGTDYGIRAFRWASRFDDQMRMVSSLRKGRVFLVGESARIHYPASGVGMNFCLQDAFNLGWKLANVINGVADPSTLDTYDAERLPVMHALLESVKAQCALQFNFEPDAVALKRRMQEHIIPLPDVQRKLVLELSGLEAPYPRAPSSHSLTGQRCPDLDLLLPDGSAVAVTQTLRERRFVLLDLEGFSRQFAALNLSGWPVTVLAARAARIPASMEGVKALLLRPDGYVAWAATDVAQAAEAEAQLAKWLKR	not soluble
MGSDKIHHHHHHMREDFLSREEVDALLRGVSSGSTTSEQSTANPGFRPYNLATQERIVRGRMPTLEIINERFARLLRLGLFNFMRRSANVTAGPVRVMKFSEFVRNLAAPSNLNLVHIKPLRGTSLFVFDPTLVFLVVDNLFGGDGRFLPKTEGRDFTQTEQRIIQRLLNLVFDSYGKSWHPVYPIEFEYLRAETNTQFANVATPNEVVVATTFEVNFGSVVGEMHICMPYSILEPIRDLLSSTLQGEALEVDKRWVGRLSKQVQSAEVTLLANLTHAQVRLDQILNMKVGDVIPLDIPEFVTASVDGVPVMECKYGISNGRYALRMEKMLASGNSNE	not soluble
MGSDKIHHHHHHMRGKILIFLHAHLPYVHHPEYDHFLEERWLFEAITETYIPLLMMFDEIEDFRLTMSITPPLMEMLSSRDLQEKYERHMEKLIELANKEVERTKKEHPLKHKMAKFYREHFEKILNVFRSYDGNILEGFKKYQETGKLEIVTCNATHAFLPLYQMYPEVVNAQITVGVKNYAKHMTLHPRGIWLAECGYYQGLDLYLAQNNVEYFFVDSHAFWFADEQPRYGVYRPIMTPSGVFAFARDPESSEQVWSAAVGYPGDPRYREFYRDIGFDREMEYIKDYIDPSGVRINTGIKYHRITSKSLDASQKEYYDIDLAMEAVEEHARDFLHKKESQARRLMDIMGVEPVIVAPFDAELFGHWWFEGVFFLKRFFELVNESKDLKLVTASEVIDTLEEVQIATPADSSWGAGGYYETWLNGTNDWIYRHLHEMIERMIDLSKKYYNSSDPLVERVLNQMLRELFLAQSSDWAFIMTTRTSVQYAENRTKLHIKRFLNLYDQLVSGRIDEEMLRYYEWTDAIFPEINFRVMARDVI	not soluble
MGSDKIHHHHHHMRIAIVHYWLVGMRGGEKVIEALCRMYPQADIFTHVVAPERLSSMLAARHIRTSFIQRLPGSVRHYQKYLPLMPLALEQFDLRDYDLVISSESGPAKGVLTRADTAHVCYCHSPMRYLWDFQQDYLDNASPLMRPFMRIFFHYLRQWDVASSQRVDRFVANSRNVARRITKHWRREATVVHPPVECDLFTQAPDVADLPDDEVADIVRQGGYYLCLGQLVGYKRVDIAIEACRKAGRRLVVVGDGEQRAMLERNAPEGVTFLGWRTQDEIRALYAGCRALLFPGEEDFGIVPVECMASGRPVIAYGKGGALETVLDGETGVLFHEQTATACHDAIMRHERMERDFVPDSLRRHARTFDTSVFERKFRREVEAALHAVRG	not soluble
MGSDKIHHHHHHMRIAVIGGGASGMVTAYLLDKQGHHITVFERQPMLGGHIRTLNKNVKPNQSDCNEMLESGVLEFPTVFHNFVALMQELGVELEPIRVGSALFPKDGSPFFSKVTNENNYTGIQRFIEYLRFDTIHTRSLGLWLKTRFAQMEDFYNRPLSQYVNNQSISNTWLKLLTMYSYSMPFELIDNFPAEMGIPMLRDYLAVKWLRIKGGVYSYIEKILERFQGEVLLNVEIVNISRSPDGVIIQRSHGEIQEFDKVVFATPPDQVIALLADPTEAEIKRFSDWKANYATTTIHTDIFMYDHHHIHHPSEFDFFQTDTQWGYNSCLNQLCGISSPQHYFLSFQLEELIAKDRIIHTQEHHTPLYTTESFRYRDEVVATNGENNTYYAGAYLGDGLHEGAIASAFRVAQLIGSPLAVSISGFNDRNADTVEIAADTAGIGKYLTHPRFHRS	not soluble
MGSDKIHHHHHHMRIIILSSSTNRSGGTRQAFYQARELATRGHHVSLCLPEDSQMHGMGYDDLIVTLPADRKRWKASIEALFAADGPTVVHAFHNRAVKFVAWHGMFWRHRGVVCCAHRGVMYRPGNPLPYISPGMDAFIANSQACARVLRLFTPAGKLFVVYNGVDDARVTPRTPADTAREQVGLPPRGAEAAWSSSSPAPLVFGFVGQNSPVKGADILIDAFARADVGEARLLMVGVSHDMWRPRCEALGIADRVHLVPHTESVSDMLQLMDAFVLPSRTESLPNTMLEAIRMGLPVIGSAVGGVPELVRGNGLLFPAGDIDALAAALGRMASDHATREAWAAASHAEGERYTIHARVDALEDIYAQLLRRRGLHTA	not soluble
MGSDKIHHHHHHMRIMPINSFENYPMSWKPSIDKAEKPIYKALAGQLEQDILNGVLLPGTKLPPQRELADYLDLNVSTISKAFKVCELKGLLSATVGSGTFVSYDALSNAYLLEDTKPTHLIEMGAILPDHASYEPLLYQLKNMVHEEDYEKWFSYGRAGESLWQKDAAVKLIQRGGFETSVDHILFANGGQNAIAATLASLCKPGDRIGVDHHTYPGLKTVASLLSVQIVPIKSENDEMSPESLEYACKNENIKGLYLIPDYHNPTTSFMSVENRRMVADIVKKYNLFVIEDASYHLLNKNPLPALASFAPQQVIHIASLSKSLAPGLRLAYVAVPRQYKEPISKALYNLNITVSPLLAELTARTIVSNQFEVLIESHREQTIRRNQLVNRYVAGYTCLGVETGIFRWLLLPGKMSGAEFEELAARLGVQVYAAERFVVGNSCPERAVRVSVCAPKTLEELEQGLMILRRLLDDLT	not soluble
MGSDKIHHHHHHMRIQQLRYLEKIATTGSINEAAKQLFISQPSLSQAMKELEKEYQVQLFYRHKTGITLTDAGREFINYSRSVLDQVNLLNEHFGQGTVRKRIFSVSAQHYAFVVNAFVELVKEIGGDTYQFTLRETETANVLNDVQTLKSELGVIYLNKFNQTVLSRLIADKDLSFVPLFEARPHVFVGRDNPLTHKQDLTLDDLRDYPYLSYEQGDTSSFYFAEEILSTLPHKKHIRISDRATIFNLMVGLNGYTISSGIISSELNDEKIVAIPLKVDDAMTLGYLRHKKIELSATAQRYLTLLKQHIQGYGFDVFNDN	not soluble
MGSDKIHHHHHHMRKISIVIPVYNTEKYLKLSVDSVLSQSYQDWELILVDDGSKDGSGAICDKYASEDSRIKVYHTVNQGVTAARGYGVEQSTGEWICFLDADDTLADDALQVMLGKSADCDIVIGNKRIVSGNDVTEEWMNQDDRQLQAVEFLDGLIRNKISQYITGRIFRRILFDNGTICIPRELIMAEDFIMNVQLGNKAKKIAVIRDMVYGYHVYGESVSHTFRTNLEYESRFCDCLFSALKTGGYYEEVKEAFTFQKVRALKSAFMAQQGRVNLRHPFLQEVRKEAKSIGLSRGWKLFLYLLPLKYIGYIFFRSLNK	not soluble
MGSDKIHHHHHHMRLTILGSSGSVPAPGNPASGYLLTSPDAPAVIMDMGPGVLAAVQEIQDPADAHVIFSHLHTDHCADFASLMVWRRFHPTLAAKSRNLLFGPEDTPNRLGRLSSDEPDGVDDMSDTFAFDAWEERKPELIDNFTVTPFRVVHPIETYALRVEEHRTGASITYSGDSAYTEALIDAARNVDIFLCEATWGTSCDDKAPGMHMCGQDAGRIAAAAGVKKLIITHVPPWIDAEATVAAAAEHFDGPIELARSGMVIEF	not soluble
MGSDKIHHHHHHMRNMNIEEIRNSFLSGRPAVLIDEERENEADLVFPAEIATPKVVNFMLSAKGLLCLALDMEEGIKRGFFKLPNNGGETNFLIPVDYKDVFTGITAEERALTARKVAEGLGIENFRYPGHLPLLGGLGLNKRKGHTEASLELVEMAGFKRYALIIEILDDKGYSHNLDYAFHFAKEHDLPLIRIREIWKEFVRRKQLIHVYSKAKLPTKYGDFEIYSFKNDLDFKDHVALVKKPFKGTPLVRVHSKCLTGDTLGSLKCDCGSQLENALRTISQEGGVLIYLDQEGRGIGLREKIRAYEFQDRGLDTVEANKALGFAPDERTYEVAFQILRALGIEKIKLLTNNPSKVKALRELGIEIEDVIPLPGEINRYNFFYLKTKVEKLGHKIPGVEV	not soluble
MGSDKIHHHHHHMRNSNLSKKPFIITIASTKGGSAKSTNAANIGAFCADHGLKTLLIDTDTQPTLSAYFALNYVAPGGIHEFLTYQDVEPSHIISKTTLSNLDLIQSNDPTNNVSQMLRNAPDGAIRFSFLLKKLKGYDVIIVDTRGTRDITVDMSVLAADLLFCPILPHILSAKEFIRGTMGMYQELQTFEAFGFSLPPLKAVPNCVDHTNDVKFVLGHLKQLFEQNLSADKTLLDFHIPNKVAYREAATYSLPVYRHSKAEYVVIQALCMHLLPQFAHQFEQGLSGHLGGHNV	not soluble
MGSDKIHHHHHHMRRFLILFVLLVAGCTGVDPNNPQYRAFVAVAEDVEPVGEAQCRSKDPERNCDFQIQLDLNPSAPANAFQTVDRSGRPVVIFTRSMLDSFRNPDEMAFVMGHEMAHHILEHLDQQRINAVKGAVFLGELVSLEGGTPEQVANAQYVGAVVGSRSYSKAFELEADALGTLITYQAGYRPSVGVKFFEEIPDPGDVFLGTHPANPDRIRIVQRTIRKYGLN	not soluble
MGSDKIHHHHHHMRRLFAIGEALIDFIPNVTHSKLKDVEQFSRQVGGAPCNVAATVSKLGGKSEMITQLGNDAFGDIIVETIEQLGVGTQYIKRTNKANTALAFVSLQDDGQRDFSFYRKPSADMLYQPENIDDIQVFQDDILHFCSVDLIESDMKYAHEKMIEKFESVDGTIVFDPNVRLPLWEDKLECQRTINAFIPKAHIVKISDEELLFITGKRNEDEAIQSLFRGRVNVVIYTQGAQGATIYTKDDYRIHHEGYQVQAIDTTGAGDAFIGAIIYCILESRYSECKDLFKEKGKDILAFSNRVAALTTTKHGAIESLPTKEDIKDYN	not soluble
MGSDKIHHHHHHMRTFQYANANPSANVSPMGRTSLATSAAKARGPLNGLIAERMRQLNLSTVKDFADYAGIGRTSIHDLVRGRTTTSGTWTKPSFDTLTKLAVALDKPTHELLYLIDPEAPGANLMFDVQQVPVYIAGQVGAGPQQLWESSDVVYVERQFAENRDLIAFTVVGDSMAGGRHPIHDGDVVIVDQRVGGEVNFPVVARLKDDGHVVKRCGPAASSTAPTRTSWTLTPQSLPLTVSPTWWDASSG	not soluble
MGSDKIHHHHHHMRTIEDDAALKILADVIKIPSVNDHELTVAKYLQDLLAKYDISAKIHPITGDRANLVAEIGHGQPVLAVSGHMDVVAAGDLAAWDTDPFTLVEKSGQLFGRGVTDMKAGLVALVVAMINIQQQGGPKHGTIRLLATMGEEVGEAGSAAFYQQGAMQDAAGLLIAEPSTVYGTAAEQKGSCDLKLTSKGKAVHSSTPERGYNALVPLIKLLNEANDYFETIPAGEMGPVRFNIDVLNGGDQVNSLPDLATALVNVRTIPEYDNDQVTQKLADLIAAYNQQGADIKMTAIMNESPIATTADNRLVKLVQAIGKPYAGRDVVVASSPGITDASNLAKRQPADFPFAVYGPGNMTQHQVNESLPKQMFYDFIAIYQQLFTRFLAE	not soluble
